For series [1], the target named is Rob Cys281-Cy3B;RNA polymerase sigma70 holoenzyme (Escherichia coli;Escherichia coli, UniProt P0ACI0;P0A7Z4;P0A8V2;P0A8T7;P0A800;P00579 1-289;1-329;1-1342;1-1407;1-91;1-613, C147S;C247S|). Description: single-molecule FRET.
Series [2] has as its target Rob Cys281-Cy3B;biotinylated RNAP holoenzyme (Escherichia coli;Escherichia coli?, UniProt P0ACI0;P0A7Z4;P0A8V2;P0A8T7;P0A800;P00579 1-289;1-329;1-1342;1-1407;1-91;1-613, C147S;C247S|). The experiment in a line: single-molecule FRET.

B1: micF DNA2-Cy5-biotin (bioDNA) (dsDNA)
DNA 1: GTATTTGACAGCACTGAATGTCAAAACAAAACCTTCACTCGCAACTATAATGGGAGCTGTCACGGATGCAACTTTATTTATTACC
DNA 2: GGTAATAAATAAAGTTGCATCCGTGACAGCTCCCATTATAGTTGCGAGTGAAGGTTTTGTTTTGACATTCAGTGCTGTCAAATAC
modifications: internal Cy5-dT in template strand
For B1, the binding result in series [1] is reported as “binds”.

B2: micF DNA2-Cy5 (dsDNA)
DNA 1: GTATTTGACAGCACTGAATGTCAAAACAAAACCTTCACTCGCAACTATAATGGGAGCTGTCACGGATGCAACTTTATTTATTACC
DNA 2: GGTAATAAATAAAGTTGCATCCGTGACAGCTCCCATTATAGTTGCGAGTGAAGGTTTTGTTTTGACATTCAGTGCTGTCAAATAC
modifications: internal Cy5-dT in template strand
Regarding B2, the binding result in series [2] is reported as “binds”.

(Values after article PMC9178005.)
